As a reminder, the Km is the concentration of substrate that gives half-maximal velocity. A word on the kcat: it is the number of substrate molecules converted per active site and unit of time at saturation.

What all share (test): steady-state kinetics, HPLC of amide product
Holding throughout (format): biochemical, Streptomyces sp. CB02304

One data set concerns Nc1c(O)ccc(C(=O)O)c1O. Particulars: 16 at 250 μM.
A further data set relates to Nc1c(O)ccc(C(=O)S)c1O. Particulars: 16 at 250 μM, 9 varied 25-1500 μM, 50 mM MOPS pH 6.5, 30 °C.
A further data set has as its target PtmC^t (Streptomyces platensis, UniProt D8L2W0). Conditions: 8 at 750 μM (partial saturation), 16 varied 10-200 μM; 50 mM MOPS pH 6.5.
Where [1] appears, read: 8 varied 100-1000 μM, 50 mM MOPS pH 6.5.
[2] abbreviates: 8 varied 25-1500 μM, 50 mM MOPS pH 6.5, 30 °C.

Chain of PtmC^t (D8L2W0 1-279 limits assumed): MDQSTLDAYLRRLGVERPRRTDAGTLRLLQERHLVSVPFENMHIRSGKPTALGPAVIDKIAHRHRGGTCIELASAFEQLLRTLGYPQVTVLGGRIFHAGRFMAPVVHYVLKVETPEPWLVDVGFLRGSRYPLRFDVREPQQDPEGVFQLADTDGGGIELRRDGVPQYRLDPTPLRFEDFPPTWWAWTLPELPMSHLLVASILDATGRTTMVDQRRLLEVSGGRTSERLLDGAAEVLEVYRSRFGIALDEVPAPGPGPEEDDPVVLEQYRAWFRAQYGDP

Consider PtmC^t (Streptomyces platensis), for which, in the data set on Nc1c(O)ccc(C(=O)O)c1O (setting [1]), the Km is 375 ± 119 µM and the kcat came out at 0.318 ± 0.0417 s⁻¹.
Regarding PtmC (Streptomyces platensis), in the data set on Nc1c(O)ccc(C(=O)O)c1O (setting [2]), the Km worked out at 372 ± 49 µM and the kcat came out at 1.54 ± 0.075 s⁻¹. For the same compound, in the data set with Nc1c(O)ccc(C(=O)S)c1O, the Michaelis constant (Km) came to 142 ± 54 µM and the kcat worked out at 4.7 ± 0.067 s⁻¹.
On to `CC(C)(COP(=O)(O)OP(=O)(O)OC[C@H]1O[C@@H](n2cnc3c(N)ncnc32)[C@H](O)[C@@H]1OP(=O)(O)O)[C@@H](O)C(=O)NCCC(=O)NCCSC(=O)CC[C@]1(C)C(=O)C=C[C@]23C[C@H]4C[C@H](O[C@@]4(C)C2)[C@H]31` [compound 16, platensicyl-CoA], for which the Michaelis constant (Km) at PtmC^t was found to be 23.7 ± 6.1 µM.

These data come from article PMC8153049 (ACS chemical biology, 2020).
